Results taken from patent US20250154215A1, “PHARMACEUTICAL COMPOSITION FOR TREATING COLITIS OR COLORECTAL CANCER COMPRISING COLON-TARGETED S100A8/A9-DERIVED SPECIFIC PEPTIDE” (Industry-University Cooperation Foundation Hanyang …, priority 2023, published 2025).

What was measured:
[1] = set-up: species or system mice; conditions: mouse, in vivo, ip, 1 mg/kg
Method: Female C57BL/6 mice with body weight of 16 to 18 g were used for PK studies. S100A8/A9 peptide or rCT-S100A8/A9 protein (1 mg/kg) was administered to the mice by intraperitoneal injection. Whole blood samples ([…]) were collected serially from the orbital vein at 0.17, 0.5, 1, 2, 4, and 6 hours after drug administration. Blood samples were centrifuged at 12,000 rpm for five minutes at 4° C., and plasma was collected. To a 10 μL plasma sample, 20 μL of 0.1% formic acid in acetonitrile was added along with amlodipine, which was an internal standard (IS), at a concentration of 500 ng/mL, and the resulting mixture was vortexed. Samples were then centrifuged at 13,200 rpm for five minutes, and 10 μL aliquots were injected for LC-MS/MS analysis.

[2] = Colon targeting of Cy5.5-conjugated protein in DSS-induced acute colitis mice (FACS); conditions: mouse, in vivo, ip
Method: FIGS. 6A-6D show the effect of rCT-S100A8/A9 peptide on colon targeting. […] Mice were exposed to 3% DSS for six days and evaluated on day 6 (left). For IB with αITGA6, αITGB1, or αActin, multiple organ harvests were used and ITGA6+ or ITGB1+ cell numbers were analyzed through FACS. […] Intraperitoneal administration of rCT-S100A8/9 conjugated with Cy5.5 for one hour and colon harvest. Colon harvests were used for IB including αITGA6, αITGB1, or αActin and ITGA6+ or ITGB1+ cell numbers were analyzed through FACS. […] Mice were treated with 3% DSS for six days and administered 1, 2, or 3 doses of Texas Red conjugated with rCT-S100A8/9. Colons were harvested in a time-dependent manner and analyzed for Texas Red+ cell numbers through FACS. Data is representative of three independent experiments with similar results. Data is shown as the mean±SD of three experiments;
Fourth, to further investigate the physiological significance of rCT-S100A8/A9 in inflammatory colitis, a DSS-induced colitis mouse model was used (FIG. 6). […] Next, to evaluate the specificity of rCT-S100A8/A9, ITGA6- or ITGB1-knockdown mice were generated by sh-lentivirus transduction. […] Finally, the pharmacodynamics of rCT-S100A8/A9 were evaluated, and according to the FACS analysis, 50% of the rCT-S100A8/A9 was retained in the colon when administered for three consecutive days to the mice with DSS-induced acute colitis (FIG. 6D).

[3] = system: OxaR CRC cells (HT29, HCT116 and SW480); assay: WST-8-based cell viability assay in parental and drug-resistant CRC cell lines
From the text: To establish a CRC cell model resistant to oxaliplatin, doxorubicin, or 5-FU, HT29, HT116, and SW480 cells were exposed to progressively increasing concentrations of oxaliplatin, doxorubicin, or 5-FU. The established oxaliplatin, doxorubicin, and 5-FU resistant cells were named OxaR, DoxR, and 5-FuR cells, respectively.
To confirm the inhibitory effect of rCT-S100A8/A9 on oxaliplatin resistance, the present inventors performed a water-soluble tetrazolium-8 (WST-8)-based cell viability assay using parental cells of three CRC cell lines, HT29, HCT-116 and SW480, and their corresponding oxaliplatin-resistant (OxaR) cell lines. OxaR CRC cells (HT29, HCT116 and SW480) were established by long-term exposure of CRC cells to oxaliplatin as described in Example 1.

[4] = set-up: species or system BALB/c mice; conditions: mouse, in vivo
Method: FIGS. 12A-12E show biological effects of rCT-S100A8/9 in tumor-bearing mice. […] Each vertical bar represents the mean±SD of cell viability at each dose. Data is shown as the mean±SD of six experiments. […] HCT116 cells were injected subcutaneously into the flanks of BALB/c mice as described in the Methods section. Mice were administered one or two intraperitoneal doses and sacrificed on day 5. Their expression was assessed by IB in various organs of mice. WCLs were used for IB including αActin. Data is representative of four independent experiments with similar results. […] E-cadherin, N-cadherin, and β-catenin staining of the tumors. […] IgG levels specific for rCT-S100A8/9 or ovalbumin (OVA) were measured using ELISA. […] Serum cytokine levels were measured 30 days after administration. […]
Cytokine content was analyzed in cell culture supernatants and mouse sera using the BD OptEIA ELISA set (BD Pharmingen) to detect TNF-α, IL-6, IL-1β, and IL-18. […]
A major concern with protein therapeutics derived from endogenous human proteins is that they may induce strong anti-therapeutic antibody responses and stimulate undesirable immune responses. […] Therefore, the immunogenicity of rCT-S100A8/A9 was assessed by measuring the production of anti-rCT-S100A8/A9 antibodies in mice immunized with the peptide according to the present invention. […]

[5] = The results of in vitro plasma stability, microsomal stability, CYP inhibition and PK profile of S100A8/A9 peptides and rCT-S100A8/A9 proteins
Method: Table printed on a drawing sheet, Fig. 5B
Title: The results of in vitro plasma stability, microsomal stability, CYP inhibition and PK profile of S100A8/A9 peptides and rCT-S100A8/A9 proteins
The patent's description of the figure: FIGS. 5A and 5B show the drug-like properties of rCT-S100A8/A9. […] Bacteria-purified 6×His-rCT-S100A8/9, rVehicle or rCT was analyzed by Coomassie staining or IB using αHis (bottom, left). BMDMs were incubated with rVehicle, rCT, or rCT-S100A8/9 for the indicated times and at the indicated concentrations, and then cell viability was measured by MTT assay (bottom, right). […] HLM, human liver microsomes; CYP, cytochrome P450. aTmax, arrival time; AUClast, total area under the plasma concentration-time curve from time 0 to the time of the last measurement; Cmax, maximum plasma concentration;
First reader's note: One record is the S100A8/A9 peptide and the other the recombinant rCT-S100A8/A9 protein; the CYP columns give remaining CYP isoform activity (CYP inhibition).

B1: TWYKIAFQRNRKTWYKIAFQRNRKTWYKIAFQRNRKTWYKIAFQRNRKTWYKIAFQRNRKGGFLVIKGGAHKSHKGGITIITFGGGHHGGFLVIKGGAHKSHKGGITIITFGGGHHGGFLVIKGGAHKSHKGGITIITFGGGHHGG (protein)
chain: TWYKIAFQRNRKTWYKIAFQRNRKTWYKIAFQRNRKTWYKIAFQRNRKTWYKIAFQRNRKGGFLVIKGGAHKSHKGGITIITFGGGHHGGFLVIKGGAHKSHKGGITIITFGGGHHGGFLVIKGGAHKSHKGGITIITFGGGHHGG
modifications: N-terminal 6xHis tag
AUC values and half-life [1]: well maintained in the blood at effective drug concentrations
tissue targeting [2]: specifically targeted the colon tissues of the mice with acute colitis
efficacy in doxorubicin-resistant (DoxR) and 5-fluorouracil-resistant (5-FuR) CRC cells ([3]; 24 h cell viability): exhibited efficacy against multidrug resistance
cell viability of OxaR CRC cells ([3]; HT29, HCT116, SW480 OxaR, 24 hours): reduced the viability of OxaR CRC cells
production of pro-inflammatory cytokines [4]: negligible
Stability (% remaining after 30 min) | HLM [5]: 92.1 % remaining after 30 min
